B1: CPEB3 Ribozyme (parent)
chain: GGGGGCCACAGCAGAAGCGUUCACGUCGCGGCCCCUGUCAGAUUCUGGUGAAUCUGCGAAUUCUGCUGU

Variants of: B1
Assay: self-cleavage, relative activity (ratio to wild type); higher = more cleavage; co-transcriptional

Row | Variant | self-cleavage
1 | A42U U46C | 0.781
2 | A42U U49C | 0.915
3 | A42U U49G | 0.957
4 | A42U U53A | 1.02
5 | A42U U53G | 1
6 | A42U U55A | 0.485
7 | A42U U55G | 0.276
8 | A42U U61A | 0.744
9 | A42U U61G | 0.448
10 | A42U U62A | 0.809
11 | A42U U62C | 0.721
12 | A42U U62G | 0.738
13 | A42U U64A | 0.726
14 | A42U U64G | 0.722
15 | A42U U67A | 0.95
16 | A42U U67G | 0.951
17 | A42U U69A | 1
18 | A42U U69C | 1.04
19 | U43A | 0.953
20 | U43A A51G | 0.928
21 | U43A A51U | 0.939
22 | U43A A52U | 0.926
23 | U43A A60G | 0.683
24 | U43A A60U | 0.29

Row | Variant | self-cleavage
25 | U43A C45A | 0.859
26 | U43A C45U | 1.03
27 | U43A C54A | 0.599
28 | U43A C54G | 0.418
29 | U43A C57A | 0.271
30 | U43A C57U | 0.41
31 | U43A C63A | 0.504
32 | U43A C63G | 0.45
33 | U43A C66A | 0.416
34 | U43A C66U | 0.831
35 | U43A G47A | 0.972
36 | U43A G47C | 0.954
37 | U43A G47U | 0.987
38 | U43A G48A | 1.04
39 | U43A G48U | 0.983
40 | U43A G50A | 0.962
41 | U43A G50C | 0.91
42 | U43A G50U | 0.959
43 | U43A G56A | 0.641
44 | U43A G56C | 0.336
45 | U43A G56U | 0.427
46 | U43A G58A | 0.929
47 | U43A G58U | 0.946
48 | U43A G65A | 0.49

Row | Variant | self-cleavage
49 | U43A G65C | 0.349
50 | U43A G65U | 0.392
51 | U43A G68C | 1.01
52 | U43A G68U | 0.973
53 | U43A U44A | 0.888
54 | U43A U44C | 0.987
55 | U43A U44G | 0.957
56 | U43A U46A | 0.958
57 | U43A U46C | 0.952
58 | U43A U46G | 0.943
59 | U43A U49A | 0.944
60 | U43A U49C | 0.939
61 | U43A U49G | 0.955
62 | U43A U53G | 0.773
63 | U43A U55A | 0.257
64 | U43A U61C | 0.334
65 | U43A U62A | 0.587
66 | U43A U62G | 0.641
67 | U43A U64A | 0.591
68 | U43A U64C | 0.649
69 | U43A U67A | 0.919
70 | U43A U67C | 0.895
71 | U43A U69A | 0.974
72 | U43A U69G | 1.01

Row | Variant | self-cleavage
73 | U43C | 0.981
74 | U43C A51C | 0.968
75 | U43C A52C | 0.968
76 | U43C A52U | 1
77 | U43C A59C | 0.652
78 | U43C A59G | 1.02
79 | U43C A59U | 0.68
80 | U43C A60C | 0.227
81 | U43C A60G | 0.798
82 | U43C A60U | 0.415
83 | U43C C45U | 1.01
84 | U43C C54G | 0.585
85 | U43C C54U | 0.905
86 | U43C C57A | 0.298
87 | U43C C57G | 0.308
88 | U43C C63A | 0.619
89 | U43C C63G | 0.648
90 | U43C C66G | 0.806
91 | U43C C66U | 0.89
92 | U43C G47A | 1.02
93 | U43C G47C | 1.01
94 | U43C G48C | 1
95 | U43C G48U | 0.998
96 | U43C G50A | 0.956

Row | Variant | self-cleavage
97 | U43C G56A | 0.861
98 | U43C G56C | 0.494
99 | U43C G58A | 0.943
100 | U43C G58U | 0.975
101 | U43C G65C | 0.567
102 | U43C G68U | 1
103 | U43C U44A | 1.02
104 | U43C U44C | 0.937
105 | U43C U46A | 0.985
106 | U43C U46C | 0.939
107 | U43C U46G | 0.97
108 | U43C U49C | 0.984
109 | U43C U53A | 0.92
110 | U43C U55A | 0.632
111 | U43C U55C | 0.455
112 | U43C U62A | 0.769
113 | U43C U62C | 0.86
114 | U43C U64A | 0.713
115 | U43C U64C | 0.671
116 | U43C U64G | 0.825
117 | U43C U67A | 0.98
118 | U43C U67C | 0.969
119 | U43C U67G | 1.01
120 | U43C U69A | 1.01

Row | Variant | self-cleavage
121 | U43G | 0.929
122 | U43G A51C | 0.941
123 | U43G A51G | 0.901
124 | U43G A51U | 0.934
125 | U43G A52C | 0.962
126 | U43G A52G | 0.911
127 | U43G A52U | 0.992
128 | U43G A59C | 0.513
129 | U43G A59G | 0.836
130 | U43G A59U | 0.566
131 | U43G A60C | 0.498
132 | U43G A60G | 0.556
133 | U43G A60U | 0.419
134 | U43G C45A | 0.886
135 | U43G C45G | 0.907
136 | U43G C54A | 0.432
137 | U43G C54G | 0.318
138 | U43G C57A | 0.293
139 | U43G C63G | 0.446
140 | U43G C66A | 0.319
141 | U43G C66U | 0.794
142 | U43G G47C | 0.936
143 | U43G G48A | 0.964
144 | U43G G48C | 0.933

Row | Variant | self-cleavage
145 | U43G G50A | 0.938
146 | U43G G50U | 0.952
147 | U43G G56A | 0.481
148 | U43G G56C | 0.329
149 | U43G G58C | 0.959
150 | U43G G58U | 0.946
151 | U43G G65C | 0.432
152 | U43G G65U | 0.352
153 | U43G G68A | 0.948
154 | U43G G68U | 0.901
155 | U43G U44A | 0.971
156 | U43G U44C | 0.936
157 | U43G U46C | 0.677
158 | U43G U46G | 0.915
159 | U43G U49A | 0.963
160 | U43G U49C | 0.815
161 | U43G U49G | 0.922
162 | U43G U53A | 0.8
163 | U43G U53G | 0.854
164 | U43G U55A | 0.486
165 | U43G U55G | 0.264
166 | U43G U61C | 0.332
167 | U43G U62G | 0.468
